Data on 29 molecules can be found in patent US20250218531A1 (ABSCI, published 2025).

To fix the notation:
B1: Trastuzumab HCDR3 variant ARYGGGYNMDY (Fab, V domains shown)
VH: EVQLVESGGGLVQPGGSLRLSCAASGFNIKDTYIHWVRQAPGKGLEWVARIYPTNGYTRYADSVKGRFTISADTSKNTAYLQMNSLRAEDTAVYYCARYGGGYNMDYWGQGTLVTVSS
VL: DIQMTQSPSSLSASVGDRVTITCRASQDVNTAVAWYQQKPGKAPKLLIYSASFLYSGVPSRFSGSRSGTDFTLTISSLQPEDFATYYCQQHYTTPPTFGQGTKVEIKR
B2: Trastuzumab HCDR3 variant TRYGLTFDMDY (Fab, V domains shown)
VH: EVQLVESGGGLVQPGGSLRLSCAASGFNIKDTYIHWVRQAPGKGLEWVARIYPTNGYTRYADSVKGRFTISADTSKNTAYLQMNSLRAEDTAVYYCTRYGLTFDMDYWGQGTLVTVSS
VL: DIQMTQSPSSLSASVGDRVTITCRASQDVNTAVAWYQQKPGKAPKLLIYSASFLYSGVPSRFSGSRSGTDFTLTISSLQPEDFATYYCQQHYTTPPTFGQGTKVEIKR
B3: Trastuzumab HCDR3 variant ARWYVSYDYDV (Fab, V domains shown)
VH: EVQLVESGGGLVQPGGSLRLSCAASGFNIKDTYIHWVRQAPGKGLEWVARIYPTNGYTRYADSVKGRFTISADTSKNTAYLQMNSLRAEDTAVYYCARWYVSYDYDVWGQGTLVTVSS
VL: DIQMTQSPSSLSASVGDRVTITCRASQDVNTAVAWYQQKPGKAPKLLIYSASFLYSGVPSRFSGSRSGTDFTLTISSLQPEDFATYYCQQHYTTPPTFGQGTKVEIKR
B4: Trastuzumab HCDR3 variant ARWEDYYYMDY (Fab, V domains shown)
VH: EVQLVESGGGLVQPGGSLRLSCAASGFNIKDTYIHWVRQAPGKGLEWVARIYPTNGYTRYADSVKGRFTISADTSKNTAYLQMNSLRAEDTAVYYCARWEDYYYMDYWGQGTLVTVSS
VL: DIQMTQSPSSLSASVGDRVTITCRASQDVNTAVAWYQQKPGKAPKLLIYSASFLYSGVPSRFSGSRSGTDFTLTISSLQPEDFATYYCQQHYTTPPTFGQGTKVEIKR
B5: Trastuzumab HCDR3 variant APYGPGYWYGV (Fab, V domains shown)
VH: EVQLVESGGGLVQPGGSLRLSCAASGFNIKDTYIHWVRQAPGKGLEWVARIYPTNGYTRYADSVKGRFTISADTSKNTAYLQMNSLRAEDTAVYYCAPYGPGYWYGVWGQGTLVTVSS
VL: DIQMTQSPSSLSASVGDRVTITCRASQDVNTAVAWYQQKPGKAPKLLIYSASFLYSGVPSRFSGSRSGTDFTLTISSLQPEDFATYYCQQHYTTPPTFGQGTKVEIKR
B6: Trastuzumab HCDR3 variant VRFYYDYYFDY (Fab, V domains shown)
VH: EVQLVESGGGLVQPGGSLRLSCAASGFNIKDTYIHWVRQAPGKGLEWVARIYPTNGYTRYADSVKGRFTISADTSKNTAYLQMNSLRAEDTAVYYCVRFYYDYYFDYWGQGTLVTVSS
VL: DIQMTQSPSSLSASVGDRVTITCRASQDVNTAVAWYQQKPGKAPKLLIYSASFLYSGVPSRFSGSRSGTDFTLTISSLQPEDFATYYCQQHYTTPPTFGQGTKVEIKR
B7: Trastuzumab HCDR3 variant TRWGGYYYFDY (Fab, V domains shown)
VH: EVQLVESGGGLVQPGGSLRLSCAASGFNIKDTYIHWVRQAPGKGLEWVARIYPTNGYTRYADSVKGRFTISADTSKNTAYLQMNSLRAEDTAVYYCTRWGGYYYFDYWGQGTLVTVSS
VL: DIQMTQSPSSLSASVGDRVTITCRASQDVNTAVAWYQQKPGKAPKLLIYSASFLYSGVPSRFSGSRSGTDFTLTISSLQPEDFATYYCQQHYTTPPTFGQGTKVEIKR
B8: Trastuzumab HCDR3 variant AVTDLDGLHSYRY (Fab, V domains shown)
VH: EVQLVESGGGLVQPGGSLRLSCAASGFNIKDTYIHWVRQAPGKGLEWVARIYPTNGYTRYADSVKGRFTISADTSKNTAYLQMNSLRAEDTAVYYCAVTDLDGLHSYRYWGQGTLVTVSS
VL: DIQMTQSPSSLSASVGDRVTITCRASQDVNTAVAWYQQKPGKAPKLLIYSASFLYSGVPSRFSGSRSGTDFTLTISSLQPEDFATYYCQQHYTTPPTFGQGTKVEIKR
B9: Trastuzumab HCDR3 variant VRYGYGDYYYFDY (Fab, V domains shown)
VH: EVQLVESGGGLVQPGGSLRLSCAASGFNIKDTYIHWVRQAPGKGLEWVARIYPTNGYTRYADSVKGRFTISADTSKNTAYLQMNSLRAEDTAVYYCVRYGYGDYYYFDYWGQGTLVTVSS
VL: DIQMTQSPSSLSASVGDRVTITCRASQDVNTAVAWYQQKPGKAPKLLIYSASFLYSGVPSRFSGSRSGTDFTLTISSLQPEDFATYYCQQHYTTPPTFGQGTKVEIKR
B10: Trastuzumab HCDR3 variant VRYYGDGGYYFDY (Fab, V domains shown)
VH: EVQLVESGGGLVQPGGSLRLSCAASGFNIKDTYIHWVRQAPGKGLEWVARIYPTNGYTRYADSVKGRFTISADTSKNTAYLQMNSLRAEDTAVYYCVRYYGDGGYYFDYWGQGTLVTVSS
VL: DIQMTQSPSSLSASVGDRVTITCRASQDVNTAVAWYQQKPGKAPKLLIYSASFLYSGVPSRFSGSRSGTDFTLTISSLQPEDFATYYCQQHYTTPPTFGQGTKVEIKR
B11: Trastuzumab HCDR3 variant VRWGVGAYYNFDY (Fab, V domains shown)
VH: EVQLVESGGGLVQPGGSLRLSCAASGFNIKDTYIHWVRQAPGKGLEWVARIYPTNGYTRYADSVKGRFTISADTSKNTAYLQMNSLRAEDTAVYYCVRWGVGAYYNFDYWGQGTLVTVSS
VL: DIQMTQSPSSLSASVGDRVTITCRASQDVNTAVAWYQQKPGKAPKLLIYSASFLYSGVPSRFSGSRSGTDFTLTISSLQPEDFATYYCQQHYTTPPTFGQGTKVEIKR
B12: Trastuzumab HCDR3 variant TRYGGYGYYYMDY (Fab, V domains shown)
VH: EVQLVESGGGLVQPGGSLRLSCAASGFNIKDTYIHWVRQAPGKGLEWVARIYPTNGYTRYADSVKGRFTISADTSKNTAYLQMNSLRAEDTAVYYCTRYGGYGYYYMDYWGQGTLVTVSS
VL: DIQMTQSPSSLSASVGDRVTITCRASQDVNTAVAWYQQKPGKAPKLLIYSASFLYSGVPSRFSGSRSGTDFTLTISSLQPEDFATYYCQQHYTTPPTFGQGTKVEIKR
B13: Trastuzumab HCDR3 variant TRYYYYGSYHFDY (Fab, V domains shown)
VH: EVQLVESGGGLVQPGGSLRLSCAASGFNIKDTYIHWVRQAPGKGLEWVARIYPTNGYTRYADSVKGRFTISADTSKNTAYLQMNSLRAEDTAVYYCTRYYYYGSYHFDYWGQGTLVTVSS
VL: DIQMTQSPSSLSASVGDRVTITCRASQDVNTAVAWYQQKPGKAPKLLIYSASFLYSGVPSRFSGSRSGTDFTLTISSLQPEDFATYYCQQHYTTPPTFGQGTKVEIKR
B14: Trastuzumab HCDR3 variant TRYGYGGPYWFDY (Fab, V domains shown)
VH: EVQLVESGGGLVQPGGSLRLSCAASGFNIKDTYIHWVRQAPGKGLEWVARIYPTNGYTRYADSVKGRFTISADTSKNTAYLQMNSLRAEDTAVYYCTRYGYGGPYWFDYWGQGTLVTVSS
VL: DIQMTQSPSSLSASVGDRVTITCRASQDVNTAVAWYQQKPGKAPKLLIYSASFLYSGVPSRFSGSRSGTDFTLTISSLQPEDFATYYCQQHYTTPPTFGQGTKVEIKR
B15: Trastuzumab HCDR3 variant TRYLHDYYYYFDY (Fab, V domains shown)
VH: EVQLVESGGGLVQPGGSLRLSCAASGFNIKDTYIHWVRQAPGKGLEWVARIYPTNGYTRYADSVKGRFTISADTSKNTAYLQMNSLRAEDTAVYYCTRYLHDYYYYFDYWGQGTLVTVSS
VL: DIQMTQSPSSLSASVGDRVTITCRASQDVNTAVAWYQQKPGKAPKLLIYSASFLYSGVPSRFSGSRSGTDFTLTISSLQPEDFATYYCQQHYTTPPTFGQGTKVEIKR
B16: Trastuzumab HCDR3 variant VRYGGWGFWYFDY (Fab, V domains shown)
VH: EVQLVESGGGLVQPGGSLRLSCAASGFNIKDTYIHWVRQAPGKGLEWVARIYPTNGYTRYADSVKGRFTISADTSKNTAYLQMNSLRAEDTAVYYCVRYGGWGFWYFDYWGQGTLVTVSS
VL: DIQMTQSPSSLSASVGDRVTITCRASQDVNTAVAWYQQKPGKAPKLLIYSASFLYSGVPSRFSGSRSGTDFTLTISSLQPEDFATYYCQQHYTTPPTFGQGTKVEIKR
B17: Trastuzumab HCDR3 variant VRYGFYGYYYFDY (Fab, V domains shown)
VH: EVQLVESGGGLVQPGGSLRLSCAASGFNIKDTYIHWVRQAPGKGLEWVARIYPTNGYTRYADSVKGRFTISADTSKNTAYLQMNSLRAEDTAVYYCVRYGFYGYYYFDYWGQGTLVTVSS
VL: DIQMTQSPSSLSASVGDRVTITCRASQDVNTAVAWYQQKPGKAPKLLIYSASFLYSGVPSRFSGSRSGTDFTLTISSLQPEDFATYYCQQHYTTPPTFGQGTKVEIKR
B18: Trastuzumab HCDR3 variant TRYGSFHYYYFDV (Fab, V domains shown)
VH: EVQLVESGGGLVQPGGSLRLSCAASGFNIKDTYIHWVRQAPGKGLEWVARIYPTNGYTRYADSVKGRFTISADTSKNTAYLQMNSLRAEDTAVYYCTRYGSFHYYYFDVWGQGTLVTVSS
VL: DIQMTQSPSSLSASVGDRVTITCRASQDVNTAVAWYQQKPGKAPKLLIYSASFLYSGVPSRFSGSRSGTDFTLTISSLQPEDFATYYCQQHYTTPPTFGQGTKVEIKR
B19: Trastuzumab HCDR3 variant TRYRGPYYYYFDP (Fab, V domains shown)
VH: EVQLVESGGGLVQPGGSLRLSCAASGFNIKDTYIHWVRQAPGKGLEWVARIYPTNGYTRYADSVKGRFTISADTSKNTAYLQMNSLRAEDTAVYYCTRYRGPYYYYFDPWGQGTLVTVSS
VL: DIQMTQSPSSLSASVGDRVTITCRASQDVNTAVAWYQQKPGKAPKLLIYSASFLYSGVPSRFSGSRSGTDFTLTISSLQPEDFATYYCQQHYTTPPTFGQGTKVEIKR
B20: Trastuzumab HCDR3 variant TSIFSGGYYGLDS (Fab, V domains shown)
VH: EVQLVESGGGLVQPGGSLRLSCAASGFNIKDTYIHWVRQAPGKGLEWVARIYPTNGYTRYADSVKGRFTISADTSKNTAYLQMNSLRAEDTAVYYCTSIFSGGYYGLDSWGQGTLVTVSS
VL: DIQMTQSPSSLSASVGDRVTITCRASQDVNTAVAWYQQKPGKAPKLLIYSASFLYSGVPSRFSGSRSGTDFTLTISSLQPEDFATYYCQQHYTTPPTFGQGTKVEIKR
B21: Trastuzumab HCDR3 variant TRNYYDYYYYFDY (Fab, V domains shown)
VH: EVQLVESGGGLVQPGGSLRLSCAASGFNIKDTYIHWVRQAPGKGLEWVARIYPTNGYTRYADSVKGRFTISADTSKNTAYLQMNSLRAEDTAVYYCTRNYYDYYYYFDYWGQGTLVTVSS
VL: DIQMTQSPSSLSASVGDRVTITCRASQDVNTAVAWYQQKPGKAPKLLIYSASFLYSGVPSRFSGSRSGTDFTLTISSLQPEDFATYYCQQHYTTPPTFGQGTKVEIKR
B22: Trastuzumab HCDR3 variant VRYGSDVYYYFDI (Fab, V domains shown)
VH: EVQLVESGGGLVQPGGSLRLSCAASGFNIKDTYIHWVRQAPGKGLEWVARIYPTNGYTRYADSVKGRFTISADTSKNTAYLQMNSLRAEDTAVYYCVRYGSDVYYYFDIWGQGTLVTVSS
VL: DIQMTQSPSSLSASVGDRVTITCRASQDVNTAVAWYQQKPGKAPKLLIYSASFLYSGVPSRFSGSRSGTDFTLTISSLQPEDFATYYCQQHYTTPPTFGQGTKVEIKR
B23: Trastuzumab HCDR3 variant VRYFYDGNYYFDL (Fab, V domains shown)
VH: EVQLVESGGGLVQPGGSLRLSCAASGFNIKDTYIHWVRQAPGKGLEWVARIYPTNGYTRYADSVKGRFTISADTSKNTAYLQMNSLRAEDTAVYYCVRYFYDGNYYFDLWGQGTLVTVSS
VL: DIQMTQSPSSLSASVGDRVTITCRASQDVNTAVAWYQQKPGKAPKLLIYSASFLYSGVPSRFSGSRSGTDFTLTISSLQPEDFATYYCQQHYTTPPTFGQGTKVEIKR
B24: Trastuzumab HCDR3 variant TRYASGYFYAFDY (Fab, V domains shown)
VH: EVQLVESGGGLVQPGGSLRLSCAASGFNIKDTYIHWVRQAPGKGLEWVARIYPTNGYTRYADSVKGRFTISADTSKNTAYLQMNSLRAEDTAVYYCTRYASGYFYAFDYWGQGTLVTVSS
VL: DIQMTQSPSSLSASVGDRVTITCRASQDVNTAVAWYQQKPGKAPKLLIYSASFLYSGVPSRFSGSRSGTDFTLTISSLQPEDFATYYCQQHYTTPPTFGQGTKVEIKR
B25: Trastuzumab HCDR3 variant TRYFFNGWYYFDV (Fab, V domains shown)
VH: EVQLVESGGGLVQPGGSLRLSCAASGFNIKDTYIHWVRQAPGKGLEWVARIYPTNGYTRYADSVKGRFTISADTSKNTAYLQMNSLRAEDTAVYYCTRYFFNGWYYFDVWGQGTLVTVSS
VL: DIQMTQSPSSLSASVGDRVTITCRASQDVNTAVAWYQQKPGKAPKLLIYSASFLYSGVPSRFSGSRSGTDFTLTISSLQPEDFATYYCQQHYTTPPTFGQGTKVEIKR
B26: Trastuzumab HCDR3 variant SRYYAGGWYYFDY (Fab, V domains shown)
VH: EVQLVESGGGLVQPGGSLRLSCAASGFNIKDTYIHWVRQAPGKGLEWVARIYPTNGYTRYADSVKGRFTISADTSKNTAYLQMNSLRAEDTAVYYCSRYYAGGWYYFDYWGQGTLVTVSS
VL: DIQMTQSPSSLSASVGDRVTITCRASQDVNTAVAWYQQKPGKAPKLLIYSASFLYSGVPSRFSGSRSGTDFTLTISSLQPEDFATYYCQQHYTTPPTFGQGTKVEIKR
B27: Trastuzumab HCDR3 variant VRYGFDGSYYFDP (Fab, V domains shown)
VH: EVQLVESGGGLVQPGGSLRLSCAASGFNIKDTYIHWVRQAPGKGLEWVARIYPTNGYTRYADSVKGRFTISADTSKNTAYLQMNSLRAEDTAVYYCVRYGFDGSYYFDPWGQGTLVTVSS
VL: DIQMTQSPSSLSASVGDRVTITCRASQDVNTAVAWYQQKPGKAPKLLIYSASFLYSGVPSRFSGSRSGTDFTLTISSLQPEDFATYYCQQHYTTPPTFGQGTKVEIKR
B28: Trastuzumab HCDR3 variant TRWLEGLSYFMDY (Fab, V domains shown)
VH: EVQLVESGGGLVQPGGSLRLSCAASGFNIKDTYIHWVRQAPGKGLEWVARIYPTNGYTRYADSVKGRFTISADTSKNTAYLQMNSLRAEDTAVYYCTRWLEGLSYFMDYWGQGTLVTVSS
VL: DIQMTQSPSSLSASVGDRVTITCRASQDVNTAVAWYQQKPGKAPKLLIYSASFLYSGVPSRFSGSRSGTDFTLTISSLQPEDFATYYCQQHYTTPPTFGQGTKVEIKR
B29: Trastuzumab HCDR3 variant TRYEYQDYYHFDY (Fab, V domains shown)
VH: EVQLVESGGGLVQPGGSLRLSCAASGFNIKDTYIHWVRQAPGKGLEWVARIYPTNGYTRYADSVKGRFTISADTSKNTAYLQMNSLRAEDTAVYYCTRYEYQDYYHFDYWGQGTLVTVSS
VL: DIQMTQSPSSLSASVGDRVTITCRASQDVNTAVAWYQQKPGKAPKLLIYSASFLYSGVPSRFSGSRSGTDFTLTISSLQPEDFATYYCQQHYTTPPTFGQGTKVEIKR

For the assay, the target named is T1, HER2 (human epidermal growth factor receptor 2) (human, UniProt P04626 23-629).
T1 construct: also called Antigen: HER2
Kind of assay: SPR.
B1: the Kd turned out to be 14.3 nM and the “log(KD (M))” value is -7.84.

For B2, binding was put at a Kd of 13.9 nM and the “log(KD (M))” value is -7.86.

B3: the Kd came out at 17.6 nM and the “log(KD (M))” value is -7.75.

Take B4: the Kd worked out at 21.8 nM and the “log(KD (M))” value is -7.66.

Turning to B5, the Kd was determined as 9.15 nM and the “log(KD (M))” value is -8.04.

Consider B6, for which the Kd was 26.9 nM and the “log(KD (M))” value is -7.57.

In the case of B7, binding was put at a Kd of 9.79 nM and the “log(KD (M))” value was -8.01.

Regarding B8, the dissociation constant (Kd) is 23.3 nM and the “log(KD (M))” value was -7.63.

Regarding B9, the Kd was 25.1 nM and the “log(KD (M))” value was -7.6.

On to B10, for which binding was put at a Kd of 5.35 nM and the “log(KD (M))” value was -8.27.

For the molecule B11, binding was characterised by a dissociation constant (Kd) of 12.1 nM and the “log(KD (M))” value is -7.92.

As to B12, the Kd was 12 nM and the “log(KD (M))” value was -7.92.

On to B13, for which the Kd amounted to 6.82 nM and the “log(KD (M))” value is -8.17.

B14: binding was characterised by a dissociation constant (Kd) of 14.3 nM and the “log(KD (M))” value was -7.84.

For B15, the affinity, expressed as Kd, was 22.7 nM and the “log(KD (M))” value is -7.64.

In the case of B16, the Kd worked out at 6.76 nM and the “log(KD (M))” value is -8.17.

For the molecule B17, the Kd was determined as 16.5 nM and the “log(KD (M))” value was -7.78.

Turning to B18, the Kd stood at 8.73 nM and the “log(KD (M))” value was -8.06.

With B19, the Kd came out at 12.1 nM and the “log(KD (M))” value is -7.92.

Consider B20, for which the Kd is 8.57 nM and the “log(KD (M))” value is -8.07.

Consider B21, for which the affinity, expressed as Kd, was 7.54 nM and the “log(KD (M))” value is -8.12.

On to B22, for which the affinity, expressed as Kd, was 19.9 nM and the “log(KD (M))” value was -7.7.

For the molecule B23, the Kd stood at 22.9 nM and the “log(KD (M))” value was -7.64.

As for B24, the Kd came out at 9.14 nM and the “log(KD (M))” value was -8.04.

Turning to B25, binding was put at a Kd of 0.94 nM and the “log(KD (M))” value was -9.03.

As for B26, binding was characterised by a dissociation constant (Kd) of 11.8 nM and the “log(KD (M))” value was -7.93.

B27: the Kd was found to be 13.2 nM and the “log(KD (M))” value is -7.88.

As for B28, the affinity, expressed as Kd, was 2.4 nM and the “log(KD (M))” value is -8.62.

B29: the affinity, expressed as Kd, was 18.5 nM and the “log(KD (M))” value was -7.73.

For orientation: Kd means a measure of binding affinity in units of concentration. Higher therefore signals weaker binding.
